Experimental data published in patent US20210052701A1, “Methods of Treating Vascular Leakage Using CXCL12 Peptides” (The Medical College of Wisconsin, Inc., priority 2018, published 2021).
Where no end group is shown, it is not given here. [ ]: non-standard residue; d: D form. sY = N[C@@H](Cc1ccc(OS(=O)(=O)O)cc1)C(=O)O

Target: CXCL12 (Homo sapiens, UniProt P48061)
Test: CXCL12 dimerization (biophysical measurements)
Type: binding
Details: sulfopeptide bound to the sTyr21 recognition site
From the text: The present invention provides a constitutively monomeric CXCL12 variant (CXCL121) engineered to resist peptide-induced dimerization by maintaining steric repulsion of the chemokine helix. Six short CXCR4 peptides, centered on Tyr7, Tyr12, or Tyr21, were synthesized to study the contributions of individual sulfotyrosines in peptide binding and specificity. Peptides were titrated into CXCL12WT, CXCL122 (a constitutively dimeric variant of CXCL12 containing L36C/A65C mutations), or CXCL121 and the interaction was monitored by 2D NMR. While sulfopeptides encompassing sTyr7 and sTyr12 interacted nonspecifically, an […] Tyr7 peptide induced a new set of chemical shift perturbations in the CXCL12 monomer that were also observed upon binding of the intact CXCR41-38 N-terminal domain.

Chain of CXCL12 (P48061 22-89 limits assumed): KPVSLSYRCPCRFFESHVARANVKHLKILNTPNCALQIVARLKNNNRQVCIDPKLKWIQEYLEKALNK

## sTyr21 sulfopeptide: short CXCR4 peptide centered on sulfated Tyr21 (SGD[sY]DSM)
  increase of the CXCL12 dimerization affinity: eight-fold
